Measurements from patent CN101896199A.

Key:
[1] = target: HBV表面抗原 (hepatitis B virus surface antigen) (乙型肝炎病毒(HBV)); experiment: ELISA titre (method of Shin YW et al. 2007); formulation after 3 months, 25℃, 60% R.H.
[2] = target: HBV表面抗原 (hepatitis B virus surface antigen) (乙型肝炎病毒(HBV)); experiment: ELISA titre (method of Shin YW et al. 2007); formulation after 3 months
[3] = target: HBV表面抗原 (hepatitis B virus surface antigen) (乙型肝炎病毒(HBV)); experiment: ELISA titre (method of Shin YW et al. 2007); formulation at 0 weeks, 25℃, 60% R.H.
[4] = target: HBV表面抗原 (hepatitis B virus surface antigen) (乙型肝炎病毒(HBV)); experiment: ELISA titre (method of Shin YW et al. 2007); formulation after 6 months, 25℃, 60% R.H.

滴度(IU/mg) [1]: > 2000 IU/mg
滴度(IU/mg) [2]: > 2000 IU/mg
滴度(IU/mg) [3]: > 2000 IU/mg
滴度(IU/mg) [4]: > 2000 IU/mg
Substance: Hepabig基因 (从细胞系HBAb-49, 登录号KCLRF-BP-00054, 产生的针对HBV表面抗原的人抗体) (antibody)
